Experimental findings from patent US12077763B2, “RNA-based control of powdery mildew” (Greenlight Biosciences, Inc., priority 2021, dated 2024) are described below.

Sequences and labels used below:
B1: GS3333 (nucleic acid)
sense: AUAAAAGACUAAUAUGAUCUAAUUUAAAUCGAACUGAUUGAAAAACAUUUGAUUUGCAAUGAAAAUUAAUAUAUAAUCAAAUAAAAUCAAAUAUUUCUCACUCUGGUGCCGGCCCGUUGUGGUAGGAAGUGACCCAACUCUUAAAUCAGGUCAGCAACAUUCAUAGGCAUCUCUUCAAUUUGAGUGCUAUAAAACUGCUCAAUUUCACGCAUCAUCCGAACAUCAUCAGCUGUUACAAAGUUGAUCGCAACACCUUUUCGUCCAAAUCGACCACCUCGACCAAUUCUGUGAAUAUAAUUCUCACGAUUAGCAGGCAAGUCGUAAUUAAUAACUAAUGAAACUUGUUGUACAUCAAUACCACGAGCAAGAAGAUCAGUGGCAAUUAAAACACGGGAUGA
antisense: UCAUCCCGUGUUUUAAUUGCCACUGAUCUUCUUGCUCGUGGUAUUGAUGUACAACAAGUUUCAUUAGUUAUUAAUUACGACUUGCCUGCUAAUCGUGAGAAUUAUAUUCACAGAAUUGGUCGAGGUGGUCGAUUUGGACGAAAAGGUGUUGCGAUCAACUUUGUAACAGCUGAUGAUGUUCGGAUGAUGCGUGAAAUUGAGCAGUUUUAUAGCACUCAAAUUGAAGAGAUGCCUAUGAAUGUUGCUGACCUGAUUUAAGAGUUGGGUCACUUCCUACCACAACGGGCCGGCACCAGAGUGAGAAAUAUUUGAUUUUAUUUGAUUAUAUAUUAAUUUUCAUUGCAAAUCAAAUGUUUUUCAAUCAGUUCGAUUUAAAUUAGAUCAUAUUAGUCUUUUAU
B2: GS3323 (nucleic acid)
sense: AGGCGUGGACUGUAGCCUCAAUAGCAUACACUGAAUCGAAUGAGUUGUCAGGAAAUGACAUUUGCAUAAAGUCACCCUUAACAAAGCUUAAUUGGUUUGAUAAGCCUUCUUUCUGUGCAUAUCUCGUGGCCCGCUCUAUUUGGUAAUCAUUGUUGUUCAAGCCAGUAAUAUGAGCGCCAGUAAACUUGGCGAUUUCUCUUGCCGGACCACCAACACCACAUCCGACAUCAAGUACUUUGUCUGCCUCAUUAAUGCCUAUCUUAGCGGCAAGAUAAUGUUCAUGUCGCGCAAUCGCUUGGUAAAAUGGUUCACCGUAAGCAAAUCUACAGAAGUGAAAAGAUUGUCCCCAGCCGUAUUCGUAAAGAUCGGUGCCGAGAUUAUAGUACUGUCUUGUCAAA
antisense: UUUGACAAGACAGUACUAUAAUCUCGGCACCGAUCUUUACGAAUACGGCUGGGGACAAUCUUUUCACUUCUGUAGAUUUGCUUACGGUGAACCAUUUUACCAAGCGAUUGCGCGACAUGAACAUUAUCUUGCCGCUAAGAUAGGCAUUAAUGAGGCAGACAAAGUACUUGAUGUCGGAUGUGGUGUUGGUGGUCCGGCAAGAGAAAUCGCCAAGUUUACUGGCGCUCAUAUUACUGGCUUGAACAACAAUGAUUACCAAAUAGAGCGGGCCACGAGAUAUGCACAGAAAGAAGGCUUAUCAAACCAAUUAAGCUUUGUUAAGGGUGACUUUAUGCAAAUGUCAUUUCCUGACAACUCAUUCGAUUCAGUGUAUGCUAUUGAGGCUACAGUCCACGCCU
B3: GS3335 (nucleic acid)
sense: UUGAGUACAGAGUAGUAGUAAUCUAUUUACAUGAAUUACAAGCUUGUACGGAUGAAUGUUUGUCAUAAGCCUACUCAUCUUUCAUGGCGAAUUUCCCAGGCGGCUAACUACUCUAAUUUGUGAGAGGCAUGAAAGUAAUGAUAGAUUUUCUCUAUGUAUAAUAAAUAGUACUCGUAUUUUAAUCAUUCAAACCCUAGUGAUAUCUUUUGUACUCUUCUCUUAUCAAAUUACAUCAAGUUCAUUCCGUCAUUUCUCGUUAUAUAUGACAUAUAAAGCAUUCCAUUCGCAUGAUAGAAAAUAAGUAAUAUGUAUAAUGACUCAAAGCCUUCACCCCAUAGCCAAAAAGUUGGGUUUAUAGUGAAACUUGUGACGUAGAGGGGAUUAAUAUCGCAUUUUCU
antisense: AGAAAAUGCGAUAUUAAUCCCCUCUACGUCACAAGUUUCACUAUAAACCCAACUUUUUGGCUAUGGGGUGAAGGCUUUGAGUCAUUAUACAUAUUACUUAUUUUCUAUCAUGCGAAUGGAAUGCUUUAUAUGUCAUAUAUAACGAGAAAUGACGGAAUGAACUUGAUGUAAUUUGAUAAGAGAAGAGUACAAAAGAUAUCACUAGGGUUUGAAUGAUUAAAAUACGAGUACUAUUUAUUAUACAUAGAGAAAAUCUAUCAUUACUUUCAUGCCUCUCACAAAUUAGAGUAGUUAGCCGCCUGGGAAAUUCGCCAUGAAAGAUGAGUAGGCUUAUGACAAACAUUCAUCCGUACAAGCUUGUAAUUCAUGUAAAUAGAUUACUACUACUCUGUACUCAA
B4: GS3337 (nucleic acid)
sense: UUUAUUAUGGCACUGGCGUGAAAAUACCUUAUCCCAAGGCAGAUACCGAUAAUGCGAGUGCUCAUGGAUAUACAAACAUUAAGGGCGGUAAUCCGGAAGGACGAGCUUUUCACCAUGGUAGACUAAUAUCUCAGCUCCGUAGAUGCUGCUCCCAGAACCCGAACAUCAAAAUUGUUGAAACGCUGGUUACAGAGACUAUUACGAAUCCUCAAACCCAAACUGUAAUUGGCGUAAGGUCAGAGACAAUGAAUGAUAAAACAGGCAAAAGAGAAGCCGACUACUAUUUGGGAGAUCUCACAAUUAUCGCCGAUGGAUAUGCAUCUAAAUUCCGAAAGCAGUAUAUAGACAAGUCACCCAUCGUAAAAAGCAAAUUCUAUGCUUUAGAGCUGAUAGAUU
antisense: AAUCUAUCAGCUCUAAAGCAUAGAAUUUGCUUUUUACGAUGGGUGACUUGUCUAUAUACUGCUUUCGGAAUUUAGAUGCAUAUCCAUCGGCGAUAAUUGUGAGAUCUCCCAAAUAGUAGUCGGCUUCUCUUUUGCCUGUUUUAUCAUUCAUUGUCUCUGACCUUACGCCAAUUACAGUUUGGGUUUGAGGAUUCGUAAUAGUCUCUGUAACCAGCGUUUCAACAAUUUUGAUGUUCGGGUUCUGGGAGCAGCAUCUACGGAGCUGAGAUAUUAGUCUACCAUGGUGAAAAGCUCGUCCUUCCGGAUUACCGCCCUUAAUGUUUGUAUAUCCAUGAGCACUCGCAUUAUCGGUAUCUGCCUUGGGAUAAGGUAUUUUCACGCCAGUGCCAUAAUAAA
B5: GS3324 (nucleic acid)
sense: CAAACUCGCUCAAUUCUCCGUAUGACUAAUUGUUCUUAUACUUAUCCUGGCGCUUCAAAACCGUCUUUGCACAAUGUGUCUUGUCAACUCUCCCUUUCAUCUCGAACUGCAAUCAUAGGUGGUAAUGGUGCAGGAAAAUCAACGUUAAUAAAACUACUUACUGGCGAGACGGUCCCUACUUCUGGGCGAGUCGAAAAACACCCUAAUUUGCGAAUUGGAUAUAUAAAACAACAUGCACUUGAACAUGUUGAAAUGCAUCUCGAGAAAACCCCAAACCAAUAUCUUCAAUGGCGCUAUGCCAAUGGUGAUGAUCGUGAGGUACAUAUGAAACAGACUCGUAUUUUAUCGGAUGCUGAUAAAGCUCAAAUGGAAAAAUGGAUUGAUAUCGAUGGGAAG
antisense: CUUCCCAUCGAUAUCAAUCCAUUUUUCCAUUUGAGCUUUAUCAGCAUCCGAUAAAAUACGAGUCUGUUUCAUAUGUACCUCACGAUCAUCACCAUUGGCAUAGCGCCAUUGAAGAUAUUGGUUUGGGGUUUUCUCGAGAUGCAUUUCAACAUGUUCAAGUGCAUGUUGUUUUAUAUAUCCAAUUCGCAAAUUAGGGUGUUUUUCGACUCGCCCAGAAGUAGGGACCGUCUCGCCAGUAAGUAGUUUUAUUAACGUUGAUUUUCCUGCACCAUUACCACCUAUGAUUGCAGUUCGAGAUGAAAGGGAGAGUUGACAAGACACAUUGUGCAAAGACGGUUUUGAAGCGCCAGGAUAAGUAUAAGAACAAUUAGUCAUACGGAGAAUUGAGCGAGUUUG
B6: GS3343 (nucleic acid)
sense: CUAGCACUUACGAGCACGUCUCUUUGAAUUCAACUAGAGACUCACAAUUAUACCUUCCUCCUAUUAAAUCUUUAGUAUUGGAUACGAAAAAUGAGGGAAGUUAUUAGUGUUAAUGUUGGCCAAGCUGGGUGCCAAAUAGCAAACUCUUGCUGGGAGCUCUAUUGCCUUGAGCAUGGUAUACAGCCUGAUGGUUACUUAACGGAGAAGCGCAAGGCCGCCGAACCUGACGAAGGUUUCAGCACUUUUUUUUCAGAGACUGGUCAGGGAAAAUACGUACCUAGAACUAUUUAUUGUGAUCUUGAACCAAAUGUAGUCGAUGAAGUUCGUACGGGUACUUAUCGUAGCUUAUUCCACCCCGAGCAAAUGAUCACCGGAAAAGAAGAUGCAUCAAACAAUUA
antisense: UAAUUGUUUGAUGCAUCUUCUUUUCCGGUGAUCAUUUGCUCGGGGUGGAAUAAGCUACGAUAAGUACCCGUACGAACUUCAUCGACUACAUUUGGUUCAAGAUCACAAUAAAUAGUUCUAGGUACGUAUUUUCCCUGACCAGUCUCUGAAAAAAAAGUGCUGAAACCUUCGUCAGGUUCGGCGGCCUUGCGCUUCUCCGUUAAGUAACCAUCAGGCUGUAUACCAUGCUCAAGGCAAUAGAGCUCCCAGCAAGAGUUUGCUAUUUGGCACCCAGCUUGGCCAACAUUAACACUAAUAACUUCCCUCAUUUUUCGUAUCCAAUACUAAAGAUUUAAUAGGAGGAAGGUAUAAUUGUGAGUCUCUAGUUGAAUUCAAAGAGACGUGCUCGUAAGUGCUAG
B7: GS1796: dsRNA trigger SEQ ID NO 211; gene target Putative aldehyde dehydrogenase-like protein C922.07c (nucleic acid)
DNA: TACCCATCCCTGGCTTAAGTATTGATTTATACATTCTAAAAGAGAGTTCGACGCATATTATGATCTACATACGGAAGTTTGGTAGGATGACGAAAACTCCTAACTTTTAAATTGAAAATTCACCAATCTGACAACATATCTATCTTATTATTGTTGCCCTAATCACTGCCTTTAATGAAGGAATAAAAAATTAAAAGATGCCCGTCACTGACTAACGCTTTTTTTTTAATTAGCCAAATTATCAGTTAACTGCAAACCAGCTACAGCGAGACGGTTTAAGCTCCCATATTTACAAAAACTGACTTGATTTGAGTGTAACCAGCTAGACCAGCTTCTCCTAGCTCCCGTCCAATTCCACTCTGTTTTACACCACCAAATGGGACCTTAAAACTTGAATCATTACTTGAATTAATCCATACCATGCCTGATTCAATTTTTCGCGCTACCCGATGAGCCCTCGTAATATCCTTGGTAAATACTGCACTACCAAGGCCATAGGTAGTATCATTTGCTATCTTTAGGGCTTCTTCTTCTGTTTTAAAGCTATTTATGACAACAAAAGGGCCGAAGACTTCTTCACGAAATATTTTCATAGATG

The subject of the first data set is E. necator. Kind of data set: Leaf disc assay, dry inoculum (settling tower), decrease in disease severity / hyphal growth (Example 2). Particulars: decrease in disease severity (hyphal growth) relative to untreated control; time point 1 (untreated control hyphal growth ≥50%); value ± SE.
In the case of B1, the “% decrease =/− SE TP1” value was found to be 5 ± 6%. Take B2: the “% decrease =/− SE TP1” value is recorded as 26 ± 7%. For the molecule B3, the “% decrease =/− SE TP1” value was 12 ± 6%.

In the case of B4, the “% decrease =/− SE TP1” value came out at 19 ± 5%. On to B5, for which the “% decrease =/− SE TP1” value came out at 12 ± 7%. On the same count and under the same terms, to B6 belongs 7 ± 6%.

The data set is the same for the next values; noted with them: decrease in disease severity (hyphal growth) relative to untreated control; time point 2; value ± SE.
Turning to B7, the “% decrease =/− SE TP2” value is reported as 1 ± 8%. The same measure, in the same setting: to B2 belongs 19 ± 7%.

Take B4: the “% decrease =/− SE TP2” value is recorded as 15 ± 7%. With B5, the “% decrease =/− SE TP2” value was determined as 14 ± 7%.
